{"source": "patent US9555076B2", "about": "“Neuregulin based methods and compositions for treating cardiovascular diseases” (Zensun (Shanghai) Science & Technology, Co., Ltd., priority 2002, dated 2017)", "key": {"[1]": {"tested_on": "phosphorylation of ErbB2 protein, MCF-7 cells", "experiment": "In vitro determination of NRG-1 activity (ELISA test for kinase receptor activation)", "assay_type": "cell-based, human", "description": "Quantity of standard product that can induce 50% maximal reaction is defined as an activity unit (1U). Accordingly, product from different pharmaceuticals and of different batch number can be quantitated with uniform criteria.\nHER2/neu gene encodes a trans-membrane protein p185, which is a tyrosine protein kinase. Binding of Neuregulin-1 with ErbB3 or ErbB4 induces heterodimer ErbB3-ErbB2 and ErbB4-ErbB2 formation and activates HER2 encoded tyrosine protein kinase, mediating the transmission of functioning signal of Neuregulin-1. Based on the fact that binding of Neuregulin-1 with its receptors triggers phosphorylation of ErbB2 protein, we establish a rapid, sensitive and high flux method for in vitro quantitatively determining biological activity of Recombinant Neuregulin-1.\n150 mM NaCl+50 mM Hepes+1% Triton-X 100+2 mM (sodium orthovanadate)+0.01% (thimerosol). […]\nWash the plate 5 times, dilute HRP enzyme linked mouse anti-phosphorylated tyrosine protein antibody with 1:500 lotion (determined by the product using guide and the using time), add 100 μl into each hole of the plate. […]\nColorimetric analysis on the ELISA reader, determine wave length of 450 nm, reference wave length of 655, record the results. […]"}, "[2]": {"tested_on": "acute myocardial injury caused by viral (Coxsackie B3) infection in mice", "experiment": "Myocardial pathologic score, mice infected with Coxsackie B3 virus", "assay_type": "in vivo, BALB/C mice", "parameters": "key: 0-4 score: 0 = 0%, 1 = 25%, 2 = 50%, 3 = 75%, 4 = 100% lesion area", "procedure": "The survived mice were killed through dislocating the cervical spine, aseptic thoracotomy was performed and the heart extirpated, heart weight measured and put the myocardium into formaldehyde for fixation, embedded in paraffin, consecutive section made and pathologic examination performed, observed inflammatory cells infiltration of the myocardium, degeneration and necrosis. Based on the Principle of New Drug Evaluation Guideline, pathologic scoring criteria was defined as follow: • Score 0: lesion area accounting for 0%; • Score 1: lesion area accounting for 25%; • Score 2: lesion area accounting for 50%; • Score 3: lesion area accounting for 75%; • Score 4: lesion area accounting for 100%; • Scoring could be performed between score 1 and score 2 or between score 2 and score 3, e.g. when lesion area was 80% was scored as score 3.2, 7.3.3.4 Observation On Survival Of Mice"}, "[3]": {"tested_on": "heart failure in rat caused by ligation of coronary artery", "experiment": "Capillary counting in myocardial fibrotic area (HE, image analysis)", "assay_type": "in vivo, SD rat", "description": "After fixed with 10% formaldehyde, myocardium of the rat was longitudinally cut with equal distance into 3 slices, conventionally embedded with paraffin, section made, HE stained, image analysis for area of fibrotic region of the heart, counted the number of capillary in the fibrotic lesion (counting unit: piece/mm^2); Nagar-Oslen stained, studied the size of ischemic hypoxic region in the myocardium."}}, "data": [{"molecule": "rhNRG-1 β: Recombinant human neuregulin fragment of 61 amino acid (SEQ ID NO:4), 3 disulfide bonds, expressed in E. coli (protein, listed as Homo sapiens, disulfide (positions not given here)) SHLVKCAEKEKTFCVNGGECFMVKDLSNPSRYLCKCPNEFTGDRCQNYVMASFYKAEELYQ", "values": [{"measurement": "specific activity", "setting": "[1]; batch number 200210024", "value": "1.12×10^4 U/mg"}, {"measurement": "specific activity", "setting": "[1]; purified recombinant neuregulin from engineered strain", "value": "more than 5×10^3 EU/mg"}, {"measurement": "Pathologic score Mean ± SD", "setting": "[2]; 7.5 μg/kg iv qd × 5, (I)", "value": "1.52 ± 0.74"}, {"measurement": "Pathologic score Mean ± SD", "setting": "[2]; 7.5 μg/kg iv qd × 5, (II)", "value": "1.34 ± 1.16"}, {"measurement": "Pathologic score Mean ± SD", "setting": "[2]; 15 μg/kg iv qd × 5, (I)", "value": "0.73±0.58"}, {"measurement": "Pathologic score Mean ± SD", "setting": "[2]; 15 μg/kg iv qd × 5, (I), listed as rhNRG-1β", "value": "0.73 ± 0.58"}, {"measurement": "Pathologic score Mean ± SD", "setting": "[2]; 15 μg/kg iv qd × 5, (II)", "value": "0.57 ± 0.58"}, {"measurement": "Pathologic score Mean ± SD", "setting": "[2]; 30 μg/kg iv qd × 3, (I)", "value": "0.33±0.155"}, {"measurement": "Pathologic score Mean ± SD", "setting": "[2]; 30 μg/kg iv qd × 3, (I), listed as rhNRG-1β", "value": "0.33 ± 0.155"}, {"measurement": "Pathologic score Mean ± SD", "setting": "[2]; 30 μg/kg iv qd × 3, (II)", "value": "0.55 ± 0.476"}, {"measurement": "Pathologic score Mean ± SD", "setting": "[2]; 30 μg/kg iv qd × 5, (I)", "value": "0.56±0.47"}, {"measurement": "Pathologic score Mean ± SD", "setting": "[2]; 30 μg/kg iv qd × 5, (I), listed as rhNRG-1β", "value": "0.56 ± 0.47"}, {"measurement": "Pathologic score Mean ± SD", "setting": "[2]; 30 μg/kg iv qd × 5, (II)", "value": "0.23 ± 0.26"}, {"measurement": "Pathologic score Mean ± SD", "setting": "[2]; 30 μg/kg iv qd × 5, Example 5 (I)", "value": "0.11±0.14"}, {"measurement": "Pathologic score Mean ± SD", "setting": "[2]; 30 μg/kg iv qd × 5, Example 5 (I), listed as rhNRG-1β", "value": "0.11 ± 0.140"}, {"measurement": "Pathologic score Mean ± SD", "setting": "[2]; 30 μg/kg iv qd × 5, Example 5 (II)", "value": "0.17 ± 0.157"}, {"measurement": "Pathologic score Mean ± SD", "setting": "[2]; 30 μg/kg iv qd × 7, (I)", "value": "0.13±0.13"}, {"measurement": "Pathologic score Mean ± SD", "setting": "[2]; 30 μg/kg iv qd × 7, (I), listed as rhNRG-1β", "value": "0.13 ± 0.132"}, {"measurement": "Pathologic score Mean ± SD", "setting": "[2]; 30 μg/kg iv qd × 7, (II)", "value": "0.19 ± 0.168"}, {"measurement": "Capillary counting (I)", "setting": "[3]; 5 μg/kg iv qd x 10", "value": "9.35 ± 4.2", "unit": "piece/mm^2"}, {"measurement": "Capillary counting (II)", "setting": "[3]; 5 μg/kg iv qd x 10", "value": "15.0 ± 6.9", "unit": "piece/mm^2"}, {"measurement": "Capillary counting (I)", "setting": "[3]; 10 μg/kg iv qd x 10", "value": "8.99 ± 3.3", "unit": "piece/mm^2"}, {"measurement": "Capillary counting (II)", "setting": "[3]; 10 μg/kg iv qd x 10", "value": "19.6 ± 8.5", "unit": "piece/mm^2"}, {"measurement": "Capillary counting (I)", "setting": "[3]; 20 μg/kg iv qd x 10", "value": "10.12 ± 3.0", "unit": "piece/mm^2"}, {"measurement": "Capillary counting (II)", "setting": "[3]; 20 μg/kg iv qd x 10", "value": "24.6 ± 9.5", "unit": "piece/mm^2"}]}]}
